In PMC13299607:

B1: YFP-RepoMan-wt [not stated] / endogenous PP2A-B56γ [human (endogenous in HeLa)] (parent)
chain 1: MDANSKDKPPETKESAMNNAGNASFILGTGKIVTPQKHAELPPNPCTPDTFKSPLNFSTVTVEQLGITPESFVRNSAGKSSSYLKKCRRRSAVGARGSPETNHLIRFIARQQNIKNARKSPLAQDSPSQGSPALYRNVNTLRERISAFQSAFHSIKENEKMTGCLEFSEAGKESEMTDLTRKEGLSACQQSGFPAVLSSKRRRISYQRDSDENLTDAEGKVIGLQIFNIDTDRACAVETSVDLSEISSKLGSTQSGFLVEESLPLSELTETSNALKVADCVVGKGSSDAVSPDTFTAEVSSDAVPDVRSPATPACRRDLPTPKTFVLRSVLKKPSVKMCLESLQEHCNNLYDDDGTHPSLISNLPNCCKEKEAEDEENFEAPAFLNMRKRKRVTFGEDLSPEVFDESLPANTPLRKGGTPVCKKDFSGLSSLLLEQSPVPEPLPQPDFDDKGENLENIEPLQVSFAVLSSPNKSSISETLSGTDTFSSSNNHEKISSPKVGRITRTSNRRNQLVSVVEESVCNLLNTEVQPCKEKKINRRKSQETKCTKRALPKKSQVLKSCRKKKGKGKKSVQKSLYGERDIASKKPLLSPIPELPEVPEMTPSIPSIRRLGSGYFSSNGKLEEVKTPKNPVKRKDLLRHDPDLHMHQGYDKYDVSEFCSYIKSSSSLGNATSDEDPNTNIMNINENKNIPKAKNKSESENEPKAGTDSPVSCASVTEERVASDSPKPALTLQQGQEFSAGGQNAENLCQFFKISPDLNIKCERKDDFLGAAEGKLQCNRLMPNSQKDCHCLGDVLIENTKESKSQSEDLGRKPMESSSVVSCRDRKDRRRSMCYSDGRSLHLEKNGNHTPSSSVGSSVEISLENSELFKDLSDAIEQTFQRRNSETKVRRSTRLQKDLENEGLVWISLPLPSTSQKAKRRTICTFDSSGFESMSPIKETVSSRQKPQMAPPVSDPENSQGPAAGSSDEPGKRRKSFCISTLANTKATSQFKGYRRRSSLNGKGESSLTALERIEHNGERKQ
chain 2: not shown

Variants of: B1
Test: proximity ligation assay (PLA)
Conditions: with endogenous PP2A-B56γ [human (endogenous in HeLa)]; asynchronous; endogenous RepoMan knocked down using siRM; Anti-GFP+B56γ antibodies; median shown in red; read off a plot

response (PLA foci per cell) | Variant
10 | chain 1 P604A

Same assay, conditions: with endogenous PP2A-B56γ [human (endogenous in HeLa)]; monastrol arrested; endogenous RepoMan knocked down using siRM; Anti-GFP+B56γ antibodies; median shown in red; read off a plot

response (PLA foci per cell) | Variant
19 | chain 1 P604A

Variants of: B1
Test: immunofluorescence, dCas9-DARPin recruitment to ectopic foci on chr 1
Conditions: with mCherry-B56γ; prometaphase-arrested cells; average of 3 independent experiments, 58 (wt) 60 (P604A) cells; read off a plot

response | Variant
0.45 | chain 1 P604A
